Article doi:10.1101/2024.01.05.574302 (bioRxiv, 2024)

T1: gAnkB aa. 1477-1792 (human, UniProt Q01484 1477-1792)
T1 sequence (looked up): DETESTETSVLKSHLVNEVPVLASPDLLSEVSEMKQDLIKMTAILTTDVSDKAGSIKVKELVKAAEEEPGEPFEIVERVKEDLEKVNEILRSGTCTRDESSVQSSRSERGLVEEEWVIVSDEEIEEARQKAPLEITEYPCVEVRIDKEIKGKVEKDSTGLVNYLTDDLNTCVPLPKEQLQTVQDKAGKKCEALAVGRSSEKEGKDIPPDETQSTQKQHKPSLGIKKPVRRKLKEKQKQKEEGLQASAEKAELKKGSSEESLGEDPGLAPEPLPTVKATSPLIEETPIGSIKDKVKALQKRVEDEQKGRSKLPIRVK

B1: mouse ASAP2-SH3 (aa. 896-958) recombinant protein (domain or fragment, UniProt Q7SIG6 896-958, looked up)
chain: SKPKRVKALYNCVADNPDELTFSEGDVIIVDGEEDQEWWIGHIDGEPSRKGAFPVSFVHFIAD
B2: ASAP1 SH3 domain (aa. 1083-1147) (domain or fragment, mouse, UniProt Q9QWY8 1083-1147, looked up)
chain: GKNKVRRVKTIYDCQADNDDELTFIEGEVIIVTGEEDQEWWIGHIEGQPERKGVFPVSFVHILSD

Experiments:
[1] = biological target: B2; assay: ITC
gAnkB aa. 1477-1792 = biological target: T1, gAnkB aa. 1477-1792; assay: ITC

Molecule: Clasp1 (from UniProt Q7Z460 1-1538) (natural protein)
- Kd [1]: 8.9 µM

Molecule: GIKKPVRRKLKE (peptide, UniProt Q01484 1699-1710, looked up) [gAnkB peptide (aa. 1699-1710)]
- Kd [1]: ~0.14 µM

Molecule: GIKKPVERKLKE (peptide, UniProt Q01484 1699-1710, looked up) [gAnkB peptide R1705E]
- fold weakening of binding against the wild-type gAnkB peptide [1]: ~125 fold

Molecule: GIKEPVRRKLKE (peptide, UniProt Q01484 1699-1710, looked up) [gAnkB peptide K1702E]
- fold weakening of binding against the wild-type gAnkB peptide [1]: ~120 fold

Molecule: GIKKGVRRKLKE (peptide, UniProt Q01484 1699-1710, looked up) [gAnkB peptide P1703G]
- fold decrease of affinity against the wild-type gAnkB peptide [1]: ~3 fold

Molecule: B1
- Kd (gAnkB aa. 1477-1792): ~68 nM

Molecule: B2
- Kd (gAnkB aa. 1477-1792): ~140 nM
